Several values for one entry are separate records, joined by “and”; a condition that tells them apart may be missing. Equal entries are not always repeated. Where no end group is shown, it is not given here. [ ]: non-standard residue; d: D form. ΔPro = O=C(O)[C@@H]1C=CCN1; Aze = O=C(O)[C@@H]1CCN1
How the values were obtained:
Assay type in all cases: biochemical
EGLN1 [1] = target: T1, EGLN1 (Homo sapiens, UniProt Q9GZT9); assay: Standard reaction (I): EGLN enzyme activity with hydroxylatable peptide substrate, 14CO2 release from 2-oxo[1-14C]glutaric acid; conditions: for specificity of peptide for EGLN1, EGLN2 and EGLN3 compared: standard reaction (I) peptides, from Table 1 and FIGS. 3, 4
T1 sequence (Q9GZT9 whole entry): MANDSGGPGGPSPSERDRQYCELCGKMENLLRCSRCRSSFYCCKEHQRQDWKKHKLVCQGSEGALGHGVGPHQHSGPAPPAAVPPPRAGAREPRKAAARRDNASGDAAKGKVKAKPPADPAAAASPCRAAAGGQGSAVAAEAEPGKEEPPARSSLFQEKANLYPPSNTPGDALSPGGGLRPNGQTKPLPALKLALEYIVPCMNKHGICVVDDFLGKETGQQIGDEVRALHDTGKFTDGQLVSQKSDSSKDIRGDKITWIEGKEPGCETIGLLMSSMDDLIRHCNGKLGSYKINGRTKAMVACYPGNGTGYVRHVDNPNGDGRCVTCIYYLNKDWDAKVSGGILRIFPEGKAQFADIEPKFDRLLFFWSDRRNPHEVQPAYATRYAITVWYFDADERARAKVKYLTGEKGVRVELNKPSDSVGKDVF
Text: (§1) Enzyme activity can be measured by monitoring the consumption of one or more reaction substrates, or accumulation of one or more reaction products. For example, enzyme activity in either the standard reaction (I) or the modified reaction (II) can be measured using a modified version of a method described by Kivirikko and Myllyla (1982, Methods Enzymol 82:245-304), which is based on the decarboxylation of 2-oxo[1-^14C]glutaric acid. In this method, radioactive ^14CO2 produced during the reaction is captured on base-impregnated filter papers and the captured radioactivity determined by liquid scintillation counting. In a particular embodiment, enzyme activity in standard reaction (I) was measured as described in Example 2 (infra).
(§2) In DLD19, methionine (M) residues were changed to alanine (A) residues due to potential oxidation of methionine during the assay reaction. Peptides used in the assay may additionally contain N-terminal and/or C-terminal blocking groups, e.g., N-terminal acetyl groups, C-terminal amide groups, etc. Enzyme activity in the presence of substrate peptides is provided supra as percent enzyme activity relative to enzyme activity in the presence of control peptide DTD20.
(§3) In all experiments, percent enzyme activity, e.g., as measured by substrate turnover, was less than 30% to insure all data obtained were in the linear range. Enzyme activity in standard reaction (I) was measured in a reaction volume of 1 mL containing EGLN enzyme preparation (10-400 μL), 0.05 μmole hydroxylatable peptide substrate, 0.1 μmole of 2-oxo[1-^14C]glutaric acid (160,000 dpm), 1 μmole of ascorbic acid, 60 μg of catalase and 50 μmole of HEPES buffer adjusted to pH 7.4 at 25° C. Optionally, 0.04 μmole FeSO4 was also be added to the reaction mix. Reactions were carried out at 37° C. for 20 minutes. In various reactions, ascorbate was replaced by 0.1 to 15 mM potassium ferrocyanide. Results are provided in Table 1 (supra) and FIGS. 3 and 4.

EGLN3 = EGLN3 (Homo sapiens, UniProt Q9H6Z9); assay: as above
EGLN3, sequence (Q9H6Z9 whole entry): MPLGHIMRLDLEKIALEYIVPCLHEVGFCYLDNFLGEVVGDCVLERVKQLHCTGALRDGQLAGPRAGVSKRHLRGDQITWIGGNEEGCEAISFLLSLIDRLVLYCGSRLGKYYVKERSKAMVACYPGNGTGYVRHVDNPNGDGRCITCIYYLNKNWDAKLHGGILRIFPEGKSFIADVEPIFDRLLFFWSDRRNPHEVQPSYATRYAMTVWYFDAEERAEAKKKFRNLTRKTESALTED
Text: as §1, §2, §3

EGLN2 = EGLN2 (Homo sapiens, UniProt Q96KS0); assay: as above; conditions: Table 1; enzyme activity relative to control peptide DTD20; 37° C., 20 minutes, pH 7.4
EGLN2, sequence (Q96KS0 whole entry): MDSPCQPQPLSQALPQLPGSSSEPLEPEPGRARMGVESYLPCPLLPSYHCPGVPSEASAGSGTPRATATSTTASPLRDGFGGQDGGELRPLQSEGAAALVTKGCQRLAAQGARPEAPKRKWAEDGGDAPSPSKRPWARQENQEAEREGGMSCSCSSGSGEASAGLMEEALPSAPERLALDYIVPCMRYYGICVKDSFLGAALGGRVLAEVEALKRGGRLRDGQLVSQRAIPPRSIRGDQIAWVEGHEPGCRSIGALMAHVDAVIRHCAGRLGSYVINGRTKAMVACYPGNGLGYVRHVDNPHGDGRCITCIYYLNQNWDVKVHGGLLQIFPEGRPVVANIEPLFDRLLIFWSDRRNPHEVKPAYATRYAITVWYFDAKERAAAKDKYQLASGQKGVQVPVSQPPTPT
Text: as §1, §2, §3

EGLN1 [2] = target: T1, EGLN1; assay: Modified reaction (II): EGLN enzyme activity with non-hydroxylatable proline-analog peptide and reducing agent; conditions: modified reaction (II) peptides, from Tables 3, 4 and FIGS. 3, 4
Text: The peptides shown in Table 3, which retain measurable activity in the present assay, are specifically contemplated for use in assays disclosed herein. These peptides are used in a reaction additionally requiring co-substrate 2-oxoglutarate and a reducing agent, e.g., ascorbate; an EGLN enzyme, and oxygen, as described below. The reaction may also include Fe^2+. The reaction proceeds according to the modified reaction (II), in which 2-oxoglutarate is converted to succinate and carbon dioxide, and the reducing agent is subsequently oxidized, e.g., ascorbate is oxidized to dehydroascorbate. […]
In still other embodiments, enzyme activity within the modified reaction (II) may be measured by disappearance of the reduced form of the reducing agent or appearance of the oxidized form of the agent. […] For example, when ascorbate is used in modified reaction (II), disappearance of ascorbate and/or appearance of dehydroascorbate may be measured, e.g., using HPLC. In particular embodiments, ascorbate may be added to modified reaction (II) in limiting quantity, and ascorbate is regenerated during the reaction with concomitant oxidation of NADH to NAD^+ using a modification of the method described by Diliberto and Allen (1981, J Biol Chem 256:3385-3393). […] HIF-PH activity is measured indirectly by consumption of NADH, which produces a reduction in absorbance at a wavelength of 340 nm. […]

[3] = Table 1, enzyme activity relative to control peptide DTD20, 37° C., 20 minutes, pH 7.4

## DTDLDIEALApYIPADDDFQ (DTDLDIEALAPYIPADDDFQ; not fully specified; printed as DTDLDIEALApYIPADDDFQ) [SEQ ID NO 24]
EGLN1 [1]
  specificity of peptide for EGLN1, EGLN2 and EGLN3 compared: higher specificity for EGLN3 than for EGLN1 and EGLN2

## DTDLDMEALApYIPADDDFQ (DTDLDMEALAPYIPADDDFQ; not fully specified (residue 11); printed as DTDLDMEALApYIPADDDFQ) [SEQ ID NO 13]
EGLN1 [1]
  specificity of peptide for EGLN1, EGLN2 and EGLN3 compared: higher specificity for EGLN3 than for EGLN1 and EGLN2

## DTDLDFEALApYIPADDDFQ (DTDLDFEALAPYIPADDDFQ; not fully specified; printed as DTDLDFEALApYIPADDDFQ) [SEQ ID NO 19]
EGLN1 [1]
  specificity of peptide for EGLN1, EGLN2 and EGLN3 compared: higher specificity for EGLN3 than for EGLN1 and EGLN2

## DTDLDWEAVSpYIPADDDFQ (DTDLDWEAVSPYIPADDDFQ; not fully specified (residue 11); printed as DTDLDWEAVSpYIPADDDFQ) [SEQ ID NO 91]
EGLN3
  hydroxylation of peptide by EGLN3: readily hydroxylated
EGLN1 [1]
  hydroxylation of peptide by EGLN1: readily hydroxylated

## 45 (DTDLDTEALAPYIPADDDFQ) [compound 45]
EGLN2
  Activity (%) EGLN2: 20.49% and 18.04%
EGLN3; [3]
  Activity (%) EGLN3: 64.55% and 60.23%
EGLN1 [1]; [3]
  Activity (%) EGLN1: 25.67% and 23.36%

## DTDLDLEALA8YIPADDDFQ (DTDLDLEALA[Aze]YIPADDDFQ) [SEQ ID NO 63, 8 = L-azetidine-2-carboxylate in place of the hydroxylated proline]
EGLN1 [2]
  specificity of proline-analog peptide for EGLN1, EGLN2 and EGLN3 compared: higher specificity for EGLN3 than for EGLN1 and EGLN2

## DTDLDLEALA4YIPADDDFQ (DTDLDLEALA[ΔPro]YIPADDDFQ) [SEQ ID NO 62, 4 = 3,4-dehydroproline in place of the hydroxylated proline]
EGLN1 [2]
  specificity of proline-analog peptide for EGLN1, EGLN2 and EGLN3 compared: higher specificity for EGLN1 and EGLN2 than for EGLN3

## DTDLDWEMVSpYIPADDDFQ (DTDLDWEMVSPYIPADDDFQ; not fully specified (residue 11); printed as DTDLDWEMVSpYIPADDDFQ) [SEQ ID NO 90]
EGLN3
  hydroxylation of peptide by EGLN3: readily hydroxylated
EGLN1 [1]
  hydroxylation of peptide by EGLN1: readily hydroxylated

## DTDLDYEMIApYIPADDDFQ (DTDLDYEMIAPYIPADDDFQ; not fully specified (residue 11); printed as DTDLDYEMIApYIPADDDFQ) [SEQ ID NO 89]
EGLN3
  hydroxylation of peptide by EGLN3: readily hydroxylated
EGLN1 [1]
  hydroxylation of peptide by EGLN1: readily hydroxylated

## DTDLDWEMVApYIPADDDFQ (DTDLDWEMVAPYIPADDDFQ; not fully specified (residue 11); printed as DTDLDWEMVApYIPADDDFQ) [SEQ ID NO 92]
EGLN3
  hydroxylation of peptide by EGLN3: readily hydroxylated
EGLN1 [1]
  hydroxylation of peptide by EGLN1: readily hydroxylated

## DTDLDLEARApYIPADDDFQ (DTDLDLEARAPYIPADDDFQ; not fully specified; printed as DTDLDLEARApYIPADDDFQ) [SEQ ID NO 15]
EGLN1 [1]
  specificity of peptide for EGLN1, EGLN2 and EGLN3 compared: higher specificity for EGLN1 and EGLN2 than for EGLN3

From patent publication US20080113383A1, “Hif Prolyl Hydroxylase Activity Assay” (Fibro Gen, Inc., priority 2004, published 2008)
